Protein stability index data for 27 sequences are collected here from the supplement of paper PMC10724198.

This data set has as its system Saccharomyces cerevisiae. Description: protein stability index of tFT-peptide fusion (C-terminal peptide) (PSI (0-1 scale)); higher = more stable (slower turnover). The settings on record: temperature: 30 C. As to the method: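 MPS profiling in S. cerevisiae of the yeast C-terminome library: the last 12 aa of each annotated ORF are fused to the C-terminus of a sfGFP-mCherry timer, after a GGGS linker. Cells are FACS-sorted into 8 mCherry/sfGFP bins and deep-sequenced. PSI runs from 0 (unstable) to 1 (stable); wild type and das1Δ backgrounds, two technical replicates each.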

The mark [1] stands for this setting: genetic background: das1 deletion.

± gives the standard deviation of the averaged measurements.

For the sequence “HKTNLTRGSFYS [YIR020W-A C-terminal 12 aa]”, the protein stability index reads like this: under setting [1], 0.70525 ± 6.6e-05; (genetic background: wild type) 0.708 ± 0.041.

Turning to HLGDPLWNFSVE [TMA20 C-terminal 12 aa], the protein stability index was 0.7244 ± 0.0043 under setting [1] and 0.707 ± 0.01 (genetic background: wild type).

With HLNESVYSKPLP [YIL028W C-terminal 12 aa], the protein stability index came to 0.6938 ± 0.0028 under setting [1] and 0.678 ± 0.065 (genetic background: wild type).

HPNIDALLKKTE [MST27 C-terminal 12 aa] registered a protein stability index under setting [1] of 0.686 ± 0.014 and a protein stability index (genetic background: wild type) of 0.654 ± 0.035.

Take HSNTLKRKIEQV [PUS4 C-terminal 12 aa]: the protein stability index is, setting by setting: under setting [1], 0.7252 ± 0.0013; (genetic background: wild type) 0.697 ± 0.012.

As to HTRRAFLIPFVF [TSC13 C-terminal 12 aa], the protein stability index reads like this: under setting [1], 0.547 ± 0.02; (genetic background: wild type) 0.241 ± 0.011.

For HVAPYAIIPFII [DFG10 C-terminal 12 aa], the protein stability index was found to be 0.724 ± 0.0075 under setting [1] and 0.151 ± 0.024 (genetic background: wild type).

For HWRSVYDEFGEL [APE1 C-terminal 12 aa], the protein stability index is, setting by setting: under setting [1], 0.721 ± 0.01; (genetic background: wild type) 0.701 ± 0.024.

For the sequence IAEEIISMFAEN [YNR064C C-terminal 12 aa], the protein stability index runs as follows: under setting [1], 0.692 ± 0.031; (genetic background: wild type) 0.723 ± 0.016.

In the case of IALAEHRVERSN [CLB3 C-terminal 12 aa], the protein stability index runs as follows: under setting [1], 0.718 ± 0.05; (genetic background: wild type) 0.701 ± 0.033.

Consider IAPIRIYKITKQ [EFM3 C-terminal 12 aa], for which the protein stability index amounted to 0.686 ± 0.028 under setting [1] and 0.677 ± 0.039 (genetic background: wild type).

As for IAREIFHNVTNF [SEC39 C-terminal 12 aa], the protein stability index was found to be 0.724 ± 0.025 under setting [1] and 0.695 ± 0.037 (genetic background: wild type).

Consider IARLEKLLSGGV [LEA1 C-terminal 12 aa], for which the protein stability index by setting is: under setting [1], 0.692 ± 0.017; (genetic background: wild type) 0.686 ± 0.0076.

IAVNYGQKDLIE [BRR1 C-terminal 12 aa]: the protein stability index reads like this: under setting [1], 0.697 ± 0.033; (genetic background: wild type) 0.669 ± 0.014.

In the case of IDLFRDAYNHEN [UPS2 C-terminal 12 aa], the protein stability index under setting [1] stood at 0.7353 ± 0.0064 and the protein stability index (genetic background: wild type) amounted to 0.70705 ± 3.4e-05.

On to IDMLKMSNAEEY [YLR012C C-terminal 12 aa], for which the protein stability index under setting [1] was determined as 0.672 ± 0.015 and the protein stability index (genetic background: wild type) is 0.6642 ± 0.0041.

IEIVKDAKRKGY [MRP21 C-terminal 12 aa]: the protein stability index is, setting by setting: under setting [1], 0.70154 ± 7.3e-05; (genetic background: wild type) 0.674 ± 0.017.

As to IEKNHAKFTDLT [CSH1 C-terminal 12 aa], the protein stability index stood at 0.7074 ± 0.0034 under setting [1] and 0.731 ± 0.017 (genetic background: wild type).

IFFILYTLFKLF [SFT1 C-terminal 12 aa] returned a protein stability index under setting [1] of 0.422 ± 0.0091 and a protein stability index (genetic background: wild type) of 0.199 ± 0.01.

On to IFLNDVYFNLMV [YPR126C C-terminal 12 aa], for which the protein stability index under setting [1] was found to be 0.728 ± 0.016 and the protein stability index (genetic background: wild type) stood at 0.686 ± 0.012.

As to IFNATASNPFGF [SLA1 C-terminal 12 aa], the protein stability index is, setting by setting: under setting [1], 0.738 ± 0.029; (genetic background: wild type) 0.747 ± 0.045.

For the sequence IFVFFVIWVLVN [SED5 C-terminal 12 aa], the protein stability index by setting is: under setting [1], 0.209 ± 0.019; (genetic background: wild type) 0.211 ± 0.015.

Regarding IGEFADNVMPLA [PRY2 C-terminal 12 aa], the protein stability index was 0.709 ± 0.026 under setting [1] and 0.712 ± 0.0076 (genetic background: wild type).

For the sequence IGISPSQNKWEK [REX3 C-terminal 12 aa], the protein stability index is 0.728 ± 0.02 under setting [1] and 0.7285 ± 0.0071 (genetic background: wild type).

As for IIRDFLIEKGFI [YNL320W C-terminal 12 aa], the protein stability index is 0.731 ± 0.024 under setting [1] and 0.667 ± 0.009 (genetic background: wild type).

In the case of IKALQDSLFKDV [NUP188 C-terminal 12 aa], the protein stability index was found to be 0.718 ± 0.013 under setting [1] and 0.705 ± 0.042 (genetic background: wild type).

Take “IKKGTPNNIAFL [YJL197C-A C-terminal 12 aa]”: the protein stability index under setting [1] came out at 0.7027 ± 0.0063 and the protein stability index (genetic background: wild type) is 0.704 ± 0.017.
